Numbering of substitutions follows the chain as printed. Numbers in names are those of the source.
Legend:
Format in all cases: biochemical
[1] = E. coli lysate activity of position 244/339 variants with CS0333 (FIG. 7); conditions: E. coli lysates; Detection Reagent; 0.5 mM substrate; 1 mM ATP; 3 mins
Method: FIG. 7 includes a representative graph assessing the activities of luciferase enzyme variants with amino acid substitutions at positions 244 and 339 of SEQ ID NO: 1 in the presence of 5,5-disubstituted luciferin analog substrate. Assays were prepared by combining overnight E. coli culture expressing enzymes with Detection Reagent+ATP+substrate (luciferin analog compounds CS0280, CS0333, CS0510, and CS0326), and luminescence was read at 3 mins. Reagent compositions included 50 μl lysate of the thermostable luciferase variant of Ppe variant of SEQ ID NO: 1, 0.5 mM substrate, and 1 mM ATP.

[2] = Activity of ATG-2889 variants (positions 344/396) with D/L-luciferin; conditions: substrate D/L-luciferin
Source text: (§1) Additionally, several other amino acid substitutions, including those not considered to be conservative or semi-conservative, were made to ATG-2889, as shown below in Table 2.

[3] = Effect of V300G, L305F, S306P on activity with CS0333 (FIG. 13); conditions: 1 mM ATP; 100 nM to 1 mM substrate; Bright-Glo buffer
Method: FIG. 13 includes a representative graph of the effects of amino acid substitutions V300G, L305F, and S306P on enzyme activity with the CS0333 analog. Reagent compositions included […]+1 mM ATP+100 nM to 1 mM substrate in Bright-Glo™ buffer.

[4] = Activity of ATG-2889 variants (positions 344/396) with CS0333; conditions: substrate CS0333
Source text: as §1

[5] = Kinetic analysis of ATG-2889 with CS0333 versus luciferin (FIG. 16B)
Method: FIG. 16B provides similar results. […] The composition was incubated for 3 mins prior to quantification.

[6] = Inhibition of luciferase enzyme variants by dehydro-F-luciferin; conditions: 1 μM F-luciferin; 1 mM ATP (FIG. 26)
Method: Reagent compositions include 0.022 μM-366.97 μM Dehydro F-luciferin titration, 1 mM ATP, 1 μM F-luciferin, and 0.005 mg/ml enzyme. […] Both amino acid substitutions L305F and S306P conferred improved resistance to the inhibitor individually and in combination.

[7] = Kinetic analysis of ATG-3707 variants with CS0333
Method: Additionally, Table 5 (below) includes kinetic analysis of the ATG-3707 variants identified above. Reagent compositions included CS0333 serially diluted 10-fold from 1 mM to 10 fM in reaction buffer with 2 mM ATP. […] Reactions were incubated at 25° C. for 3 min, and luminescence was read and then normalized to ATG-3707 activity tested in parallel. […] Since C2157D2 was selected for improved brightness in CellTiterGlo® buffer over ATG-3707, it still had beneficial properties.

[8] = Activity and kinetics of ATG-3707 with CS0333 (FIGS. 19B-19D)
Method: Reagent compositions included 0.005 mg/ml enzyme in 1×TBS+0.5% Prionex, 1 mM substrate in buffer, and 1 mM ATP.

[9] = Kinetic analysis of ATG-3707, ATG-4117 with CS0333
Method: (§2) Kinetic tests of these luciferase enzyme variants were also conducted. […] Reagent compositions included 0.005 mg/ml luciferase enzyme variant+1 mM ATP, and 0.1 fM to 1 mM substrate in Bright-Glo™ (BG) or Detection Reagent (DR) buffers. The composition was incubated for 3 mins and read on GloMax® Multi+platform.
(§3) Table 8 below includes representative results of kinetic analysis of the thermostable luciferase variants of Ppe (SEQ ID NO: 1), ATG-3707, and ATG-4117. The Ppe variant (SEQ ID NO: 1) was tested with D/L-luciferin, and ATG-3707, and ATG-4117 were tested with CS0280 and CS0333.

[10] = Vmax and Km of ATG-3707 with CS0333
[11] = Kinetic analysis of Ppe variant, ATG-3707, ATG-4117 with D/L-luciferin
Method: as §2, §3

[12] = Luminescence of ATG-3707 variants (second round epPCR) with CS0333
Method: Reagent compositions included CS0333 diluted from 20 mM to 2 mM in reaction buffer with 2 mM ATP. […] Reactions were incubated at 25° C. for 3 min, and luminescence was read and then normalized to ATG-3707 activity tested in parallel.

[13] = Kinetic analysis of ATG-3707, ATG-4117 with CS0280
Method: as §2, §3

[14] = Vmax and Km of Ppe variant and ATG-3707 with D/L-luciferin

B1: ATG2889: SEQ ID NO: 12; H244W+T344A+I396K (protein)
chain: MADKNILYGPEPFYPLEDGTAGEQMFDALSRYAAIPGCIALTNAHTKENVLYEEFLKLSCRLAESFKKYGLKQNDTIAVCSENSLQFFLPVIASLYLGIIVAPVNDKYIERELIHSLGIVKPRIVFCSKNTFQKVLNVKSKLKSIETIIILDLNEDLGGYQCLNNFISQNSDSNLDVKKFKPYSFNRDDQVASIMFSSGTTGLPKGVMLTHKNIVARFSIAKDPTFGNAINPTSAILTVIPFHWGFGMMTTLGYFTCGFRVVLMHTFEEKLFLQSLQDYKVESTLLVPTLMAFLAKSALVEKYDLSHLKEIASGGAPLSKEIGEMVKKRFKLNFVRQGYGLTEATSAVLITPKGDAKPGSTGKIVPLHAVKVVDPTTGKILGPNEPGELYFKGPMKMKGYYNNEEATKAIIDNDGWLRSGDIAYYDNDGHFYIVDRLKSLIKYKGYQVAPAEIEGILLQHPYIVDAGVTGIPDEAAGELPAAGVVVQTGKYLNEQIVQDYVASQVSTAKWLRGGVKFLDEIPKGSTGKIDRKVLRQMLEKHTNGHHHHHHHH
For B1, the “activity above background with CS0333” value [1] was “approximately 285 fold”, the “activity with D/L-luciferin” value [2] was 5507240 and the “activity with CS0333 relative to Ppe variant (SEQ ID NO: 1)” value [3] was “improved activity”. The “activity with CS0333” value [4] was 679219, the “Vmax with CS0333 lower than the Vmax for luciferin” value ([5]; Bright-Glo Buffer) was 23.1 fold and the “Vmax with CS0333 lower than the Vmax for luciferin” value ([5]; Detection Reagent buffer) was 42.9 fold.

B2: ATG-3552: SEQ ID NO: 17; H244W+T344A+I396K+V300G+L305P+S306P (protein)
chain: B1 chain with V300G, L305F, S306P
In the case of B2, the “resistance to inhibition by dehydro F-luciferin” value [6] is reported as “conferred resistance to inhibition by dehydro F-luciferin” and the “activity with CS0333 relative to Ppe variant (SEQ ID NO: 1)” value [3] is reported as “improved activity”.

B3: ATG3707: SEQ ID NO: 2; H244W+T344A+I396K+S193A+N228D+L305F+S306P+I109V (protein)
chain: B1 chain with I109V, S193A, N228D, L305F, S306P
With B3 the Km ([7]; BrightGlo) was 6.25 µM, the “Vmax (RLU)” value ([7]; BrightGlo) was 4,240,329 RLU and the Km ([7]; Detection Reagent) was 113 µM. The “Vmax (RLU)” value ([7]; Detection Reagent) was 3,695,670 RLU, the “activity with CS0333 comparable to that of Ppe variant with luciferin” value ([8]; Bright-Glo and Detection Reagent buffers) was ≤ 10 × and the “loss of performance with D/L-luciferin as compared to CS0333” value ([8]; dimmer) was “about 1 log”. The Km ([9]; BrightGlo) was 3.61 µM, the “Vmax (RLU)” value ([9]; BrightGlo) was 828,567 RLU and the Km ([9]; Detection Reagent) was 148 µM. For the same molecule, the “Vmax (RLU)” value ([9]; Detection Reagent) was 42,242 RLU, the Km ([10]; BrightGlo Buffer) was 0.539 µM and the “Vmax (RLU)” value ([10]; BrightGlo Buffer) was 3,724,104 RLU. The Km ([10]; Detection Reagent Buffer) was 4.82 µM, the “Vmax (RLU)” value ([10]; Detection Reagent Buffer) was 5,458,906 RLU and the Km ([11]; BrightGlo) was 0.0272 µM. The “Vmax (RLU)” value ([11]; BrightGlo) was 2,596,835 RLU, the Km ([11]; Detection Reagent) was 1.18 µM and the “Vmax (RLU)” value ([11]; Detection Reagent) was 6,820,106 RLU. The “Luminescence (RLU) BrightGlo” value ([12]; BrightGlo buffer, 25° C., 3 min) was 3887670 RLU, the “Normalized Luminescence BrightGlo” value ([12]; BrightGlo buffer, normalized to ATG-3707) was 1.00 and the “Luminescence (RLU) CellTiterGlo” value ([12]; CellTiterGlo buffer, 25° C., 3 min) was 644571 RLU. For the same molecule, the “Normalized Luminescence CellTiterGlo” value ([12]; CellTiterGlo buffer, normalized to ATG-3707) was 1.00, the “Luminescence (RLU) Detection Reagent” value ([12]; Detection Reagent buffer, 25° C., 3 min) was 5157310 RLU and the “Normalized Luminescence Detection Reagent” value ([12]; Detection Reagent buffer, normalized to ATG-3707) was 1.00. For the same molecule, the Km ([13]; BrightGlo) was 4.53 µM, the “Vmax (RLU)” value ([13]; BrightGlo) was 5,791,823 RLU and the Km ([13]; Detection Reagent) was 93.5 µM. For the same molecule, the “Vmax (RLU)” value ([13]; Detection Reagent) was 4,706,312 RLU, the Km ([14]; BrightGlo Buffer) was 0.03 µM and the “Vmax (RLU)” value ([14]; BrightGlo Buffer) was 2,033,235 RLU. For the same molecule, the Km ([14]; CellTiterGlo buffer) was 91.7 µM, the “Vmax (RLU)” value ([14]; CellTiterGlo buffer) was 4,840,502 RLU and the Km ([14]; Detection Reagent Buffer) was 19.4 µM. For the same molecule, the “Vmax (RLU)” value ([14]; Detection Reagent Buffer) was 4,499,483 RLU.
